The labels stand for the following.
B1: HDV Ribozyme (parent)
chain: GGCCGGCAUGGUCCCAGCCUCCUCGCUGGCGCCGGCUGGGCAACAUUCCGAGGGGACCGUCCCCUCGGUAAUGGCGAAUGGGACCCA

In this data set the parent is B1. In words: self-cleavage, relative activity (ratio to wild type); higher = more cleavage; co-transcriptional.
Consider C62A A87C, for which the self-cleavage was found to be 0.946.

Consider C22A G34U, for which the self-cleavage was found to be 0.0536.

With G76U A77U, the self-cleavage was 0.868.

Regarding C22A C66G, the self-cleavage was 0.373.

G59A C63G: the self-cleavage amounted to 0.805.

In the case of A51C G73A, the self-cleavage was found to be 0.383.

For the variant C15U C75U, the self-cleavage turned out to be 0.227.

On to C33U A45U, for which the self-cleavage was 0.57.

In the case of G2C G80A, the self-cleavage came to 0.0573.

Consider C26U G54C, for which the self-cleavage was 1.03.

C48A G54C: the self-cleavage was determined as 1.17.

With C21U C85U, the self-cleavage stood at 0.511.

Turning to C15G C36U, the self-cleavage came to 0.264.

Regarding C33U G81U, the self-cleavage came to 0.177.

C15A A71U: the self-cleavage is 0.802.

As to C7U G50A, the self-cleavage is 0.786.

Consider G55C C86G, for which the self-cleavage came to 1.09.

Consider C44A U60A, for which the self-cleavage came out at 0.867.

Regarding G17U G25C, the self-cleavage amounted to 0.0811.

Consider C33U C64G, for which the self-cleavage is 0.736.

Regarding U47A C48A, the self-cleavage was 0.973.

Regarding A51C G67C, the self-cleavage stood at 0.886.

Take C4U G25C: the self-cleavage came out at 0.0773.

Take C3U G28C: the self-cleavage was determined as 0.0449.

Regarding U46G A83G, the self-cleavage was 0.746.

As to G11A C63A, the self-cleavage worked out at 0.345.

G39A A70C: the self-cleavage is 0.277.

In the case of A45C U46A, the self-cleavage amounted to 0.499.

G11A C44A: the self-cleavage was 0.187.

In the case of G17U C32G, the self-cleavage stood at 0.0386.

Turning to A42U U79A, the self-cleavage came out at 0.145.

Regarding A16G G59A, the self-cleavage is 1.29.

On to G1U G73A, for which the self-cleavage was found to be 0.237.

Take C62A A71U: the self-cleavage amounted to 0.892.

Regarding U20A A71G, the self-cleavage was 0.0665.

Regarding G11A U65C, the self-cleavage was 0.277.

Turning to C4G C75G, the self-cleavage amounted to 0.122.

For the variant A16U G67U, the self-cleavage came to 0.975.

On to C58A G73A, for which the self-cleavage was found to be 0.787.

With A16G A43G, the self-cleavage is 0.266.

As to A42G C75A, the self-cleavage was determined as 0.0554.

With A8U C66G, the self-cleavage amounted to 0.8.

Regarding C24G G31C, the self-cleavage came out at 0.0563.

As for U47C C84U, the self-cleavage was 0.475.

G68C A83C: the self-cleavage amounted to 0.332.

As for C57G C63U, the self-cleavage was 1.12.

As to C15U U46G, the self-cleavage is 0.499.

On to C64A C85A, for which the self-cleavage amounted to 0.623.

Take G35U A45U: the self-cleavage is 0.289.

Turning to G1C C41G, the self-cleavage was 0.

As for C22A U23C, the self-cleavage came to 0.0978.

On to C22G C63A, for which the self-cleavage stood at 0.166.

Take G5A A78C: the self-cleavage turned out to be 0.106.

Turning to U23C G59A, the self-cleavage amounted to 1.19.

As to C14G U27G, the self-cleavage turned out to be 1.14.

Turning to C64U U72A, the self-cleavage stood at 0.567.

As for C26U C57A, the self-cleavage amounted to 1.22.

Take U72G G73A: the self-cleavage came to 0.707.

As to G35U U46A, the self-cleavage came out at 0.116.

In the case of U60G U79A, the self-cleavage amounted to 0.665.

In the case of C24U G38A, the self-cleavage is 0.0863.

Consider C18U C44U, for which the self-cleavage stood at 0.258.

In the case of C21G G38C, the self-cleavage stood at 0.

U47A C86A: the self-cleavage was determined as 1.04.

Turning to G1U C86A, the self-cleavage stood at 0.32.

With C18U G40A, the self-cleavage came out at 0.691.

On to C57U U79C, for which the self-cleavage turned out to be 0.237.

Turning to G67A A83U, the self-cleavage is 0.359.

Consider C24A G53A, for which the self-cleavage was determined as 0.893.

Turning to G31C G34C, the self-cleavage was found to be 0.0396.

For the variant U69C U79A, the self-cleavage is 0.684.

In the case of C41G U72G, the self-cleavage was 0.795.

With C61G C75G, the self-cleavage is 0.113.

As for G53C U60G, the self-cleavage amounted to 1.01.

A8U U12C: the self-cleavage was found to be 0.227.

In the case of U27G C41G, the self-cleavage was determined as 0.802.

Take U12A C75G: the self-cleavage was 0.277.

Regarding C30G C61G, the self-cleavage stood at 0.157.

For the variant G11C C26U, the self-cleavage is 0.895.

In the case of G38U C62G, the self-cleavage amounted to 0.0831.

Turning to C49A G59A, the self-cleavage stood at 0.938.

Take C64G G74A: the self-cleavage was determined as 0.17.

As for C48G G74A, the self-cleavage is 0.305.

For the variant U9A G17A, the self-cleavage was 0.906.

As to C4G A70C, the self-cleavage was determined as 0.244.

Turning to C62U G82A, the self-cleavage worked out at 0.338.

Take G54U C86A: the self-cleavage stood at 0.799.

As to G6A C15G, the self-cleavage worked out at 0.133.

In the case of C26G C33G, the self-cleavage was found to be 0.285.

With C4A G55U, the self-cleavage was 0.237.

Take G35C C48A: the self-cleavage amounted to 0.269.

For the variant U27A G80U, the self-cleavage worked out at 0.231.

As for G2U U72C, the self-cleavage was 0.0191.

Consider G53U A83U, for which the self-cleavage turned out to be 0.609.

Turning to C18G U69C, the self-cleavage was found to be 0.151.

On to C26U G73C, for which the self-cleavage worked out at 0.492.

Regarding G40A G53U, the self-cleavage was determined as 0.823.

For the variant G73A G76C, the self-cleavage is 0.516.

In the case of G5U G74A, the self-cleavage amounted to 0.125.

C21A C85A: the self-cleavage turned out to be 0.

As to G59A A78C, the self-cleavage was found to be 0.282.

Regarding G6C G35A, the self-cleavage was 0.0755.

Turning to U12G G68C, the self-cleavage came out at 0.914.

Take C21G C63U: the self-cleavage stood at 0.0339.

G31C G54A: the self-cleavage was found to be 0.191.

With G39C C49A, the self-cleavage came to 0.237.

Turning to C32A A56U, the self-cleavage was 0.369.

As to C26U, the self-cleavage turned out to be 1.02.

As to G53C A56C, the self-cleavage was 1.14.

C30U G73U: the self-cleavage amounted to 0.153.

Take G52C C63A: the self-cleavage is 1.05.

Regarding C3G A51G, the self-cleavage worked out at 0.746.

Regarding U79A G82U, the self-cleavage worked out at 0.374.

Regarding C64G G73C, the self-cleavage was found to be 0.324.

Take G2C C30U: the self-cleavage is 0.117.

Take G1U G34C: the self-cleavage was 0.155.

For G17U U37C, the self-cleavage came to 0.612.

As for C18U U23C, the self-cleavage stood at 0.415.

As to C58G C66A, the self-cleavage came out at 1.15.

As for G2A U65G, the self-cleavage was 0.223.

On to A16U C86U, for which the self-cleavage came out at 0.852.

Take G81U A83U: the self-cleavage turned out to be 0.126.

In the case of A56U C75A, the self-cleavage worked out at 0.0875.

Turning to C21G C48U, the self-cleavage came out at 0.0707.

With G76A C85U, the self-cleavage is 1.11.

Take G2U A42G: the self-cleavage was determined as 0.0767.

Consider G1U G6A, for which the self-cleavage turned out to be 0.41.

Consider C7U U12A, for which the self-cleavage worked out at 0.35.

As to C15U G67C, the self-cleavage came out at 0.883.

Turning to C62G, the self-cleavage was 0.695.

As for C7A C57G, the self-cleavage came to 0.571.

With U37G C64G, the self-cleavage was 0.0437.

With U46A C66U, the self-cleavage is 0.743.

Turning to C22U G82C, the self-cleavage turned out to be 0.198.

For the variant C32G U46C, the self-cleavage amounted to 0.0978.

G55A U69A: the self-cleavage worked out at 0.857.

As to C14U C58A, the self-cleavage was determined as 1.13.

On to A56G U60G, for which the self-cleavage was 0.831.

Take C13A U79G: the self-cleavage stood at 0.151.

Take C33A C75U: the self-cleavage turned out to be 0.0563.

Consider U12G U23A, for which the self-cleavage worked out at 0.875.

G10U G81C: the self-cleavage stood at 0.101.

As to C30G U37C, the self-cleavage came to 0.

As for C15U G39U, the self-cleavage came to 0.322.

As for G39A G68C, the self-cleavage came out at 0.441.

For C4A C24U, the self-cleavage worked out at 0.

Regarding C3G G54U, the self-cleavage turned out to be 0.702.

As for C3U C75A, the self-cleavage was determined as 0.101.

Turning to C30U G80C, the self-cleavage is 0.208.

As for C36G G73C, the self-cleavage was 0.185.

For C63A C84U, the self-cleavage amounted to 0.717.

On to U65G A77G, for which the self-cleavage came out at 0.831.

As for G29U G39C, the self-cleavage was determined as 0.0302.

Turning to C61A G74C, the self-cleavage was found to be 0.315.

Regarding G68C A78C, the self-cleavage is 0.237.

As to C75A G76U, the self-cleavage was 0.289.

For U9A U65C, the self-cleavage was determined as 1.07.

On to G35C U60G, for which the self-cleavage was 0.353.

Regarding U27G U37A, the self-cleavage was determined as 0.119.

Consider G68A G76C, for which the self-cleavage is 0.88.

As to C7A G55A, the self-cleavage came to 0.627.

For U9C C62U, the self-cleavage is 0.869.

With C32G A56U, the self-cleavage stood at 0.0482.

As to C33U U60C, the self-cleavage was found to be 0.773.

G29C G38U: the self-cleavage is 0.0627.

For the variant U23C U60C, the self-cleavage is 0.858.

G17A C30A: the self-cleavage was 0.651.

For the origin of these results see the RNAGym collection of RNA variant scans (doi:10.7554/elife.80360).
